According to patent US20260234272A1 (SCHOLAR ROCK, published 2026):
Residue numbers refer to the chain shown, from its start.

Experiments:
[1] = molecular target: T1, human LTBP1-proTGFβ1 complex (human, UniProt Q14766 347-1721; P01137 30-390); test: Octet binning: 500 nM complex pre-incubated with 1 µM first antibody SR-AB10; competitor: second antibody SR-AB10 on AHC tip
T1 construct: Complex of presenting molecule LTBP1 disulfide-linked to a proTGFβ1 homodimer; also called proTGFβ1:LTBP1 complex; LTBP1-TGFβ1 complex
Description: (§1) 500 nM of human LTBP1-proTGFβ1 complex was pre-incubated with 1 μM of each test antibody. After an overnight incubation, the LTBP1-[…] first antibody was tested for binding to a second antibody which was immobilized to an Anti-Human IgG Fc Capture (AHC) sensor tip at 67 nM.
(§2) Binding of the complex to a specific second antibody was normalized to the uninhibited interaction, that is the complex in the presence of HuNeg control antibody. Normalized responses less than 70% or 0.7 of the uninhibited interaction were considered antibodies that cross block.

[2] = molecular target: T1, human LTBP1-proTGFβ1 complex; test: Octet binning: 500 nM complex pre-incubated with 1 µM first antibody SR-AB10; competitor: second antibody SR-AB13 on AHC tip
Description: as §1, §2

[3] = molecular target: T1, human LTBP1-proTGFβ1 complex; test: Octet binning: 500 nM complex pre-incubated with 1 µM first antibody SR-AB10; competitor: second antibody SR-AB1 on AHC tip
Description: as §1, §2

[4] = molecular target: T1, human LTBP1-proTGFβ1 complex; test: Octet binning: 500 nM complex pre-incubated with 1 µM first antibody SR-AB10; competitor: second antibody SR-AB2 on AHC tip
Description: as §1, §2

GARP-proTGFβ1 complex = molecular target: T2, GARP-proTGFβ1 complex (human, UniProt Q14392 20-627; P01137 30-390, limits assumed); test: Octet, yeast expressed IgG1Agly; concentration not shown
T2 construct: In the cell assays GARP was overexpressed from a human plasmid (whole, on cells); also called GARP-TGFβ1

[5] = molecular target: T1, human LTBP1-proTGFβ1 complex; test: Octet binning: 500 nM complex pre-incubated with 1 µM first antibody SR-AB13; competitor: second antibody SR-AB1 on AHC tip
[6] = molecular target: T1, human LTBP1-proTGFβ1 complex; test: Octet binning: 500 nM complex pre-incubated with 1 µM first antibody SR-AB13; competitor: second antibody SR-AB10 on AHC tip
[7] = molecular target: T1, human LTBP1-proTGFβ1 complex; test: Octet binning: 500 nM complex pre-incubated with 1 µM first antibody SR-AB13; competitor: second antibody SR-AB2 on AHC tip
[8] = molecular target: T1, human LTBP1-proTGFβ1 complex; test: Octet binning: 500 nM complex pre-incubated with 1 µM first antibody SR-AB13; competitor: second antibody SR-AB13 on AHC tip
[9] = molecular target: T1, human LTBP1-proTGFβ1 complex; test: Octet binning: 500 nM complex pre-incubated with 1 µM first antibody SR-AB2; competitor: second antibody SR-AB2 on AHC tip
Description: as §1, §2

[10] = molecular target: T1, human LTBP1-proTGFβ1 complex; test: Octet binning: 500 nM complex pre-incubated with 1 µM first antibody SR-AB2; competitor: second antibody SR-AB10 on AHC tip
Description: as §1, §2

[11] = molecular target: T1, human LTBP1-proTGFβ1 complex; test: Octet binning: 500 nM complex pre-incubated with 1 µM first antibody SR-AB2; competitor: second antibody SR-AB13 on AHC tip
Description: as §1, §2

[12] = molecular target: T1, human LTBP1-proTGFβ1 complex; test: Octet binning: 500 nM complex pre-incubated with 1 µM first antibody SR-AB2; competitor: second antibody SR-AB1 on AHC tip
Description: as §1, §2

T1 sequence (Q14766 347-1721 limits assumed, chain 1 of 2): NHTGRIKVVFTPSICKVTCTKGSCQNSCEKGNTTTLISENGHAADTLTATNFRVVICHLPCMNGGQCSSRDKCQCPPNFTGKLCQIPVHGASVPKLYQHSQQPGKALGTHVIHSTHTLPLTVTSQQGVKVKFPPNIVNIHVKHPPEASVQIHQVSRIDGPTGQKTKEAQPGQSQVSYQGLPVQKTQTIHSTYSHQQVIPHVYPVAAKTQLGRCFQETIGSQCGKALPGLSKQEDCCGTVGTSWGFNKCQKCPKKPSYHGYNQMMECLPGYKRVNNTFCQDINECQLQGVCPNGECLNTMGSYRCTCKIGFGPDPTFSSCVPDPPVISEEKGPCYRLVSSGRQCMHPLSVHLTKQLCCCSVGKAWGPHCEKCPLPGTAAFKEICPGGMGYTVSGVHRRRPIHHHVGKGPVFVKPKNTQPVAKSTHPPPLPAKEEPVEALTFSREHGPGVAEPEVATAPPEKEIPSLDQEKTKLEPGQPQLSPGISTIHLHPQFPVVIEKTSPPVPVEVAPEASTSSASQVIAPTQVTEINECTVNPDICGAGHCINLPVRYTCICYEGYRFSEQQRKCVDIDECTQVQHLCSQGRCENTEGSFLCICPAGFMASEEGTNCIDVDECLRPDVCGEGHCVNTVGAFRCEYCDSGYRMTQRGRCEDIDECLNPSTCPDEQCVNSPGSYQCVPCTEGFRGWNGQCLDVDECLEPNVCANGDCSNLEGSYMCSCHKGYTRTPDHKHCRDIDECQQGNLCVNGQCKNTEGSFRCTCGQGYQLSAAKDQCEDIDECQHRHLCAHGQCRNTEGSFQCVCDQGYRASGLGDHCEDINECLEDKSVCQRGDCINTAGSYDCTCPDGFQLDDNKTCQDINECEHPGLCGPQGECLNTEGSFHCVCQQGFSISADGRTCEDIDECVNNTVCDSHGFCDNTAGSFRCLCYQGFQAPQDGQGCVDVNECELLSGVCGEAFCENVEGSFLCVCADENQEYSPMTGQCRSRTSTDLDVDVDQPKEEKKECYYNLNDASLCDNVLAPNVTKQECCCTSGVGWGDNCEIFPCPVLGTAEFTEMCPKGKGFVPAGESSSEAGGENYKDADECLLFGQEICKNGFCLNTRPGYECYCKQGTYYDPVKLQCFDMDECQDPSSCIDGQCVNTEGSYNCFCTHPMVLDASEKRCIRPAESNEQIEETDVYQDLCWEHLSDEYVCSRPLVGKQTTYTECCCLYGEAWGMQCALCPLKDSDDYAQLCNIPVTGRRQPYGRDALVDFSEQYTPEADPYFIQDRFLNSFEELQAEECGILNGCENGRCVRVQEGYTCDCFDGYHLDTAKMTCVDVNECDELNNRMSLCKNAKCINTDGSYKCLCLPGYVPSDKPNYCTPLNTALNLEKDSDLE
T1 sequence (P01137 30-390 limits assumed, chain 2 of 2): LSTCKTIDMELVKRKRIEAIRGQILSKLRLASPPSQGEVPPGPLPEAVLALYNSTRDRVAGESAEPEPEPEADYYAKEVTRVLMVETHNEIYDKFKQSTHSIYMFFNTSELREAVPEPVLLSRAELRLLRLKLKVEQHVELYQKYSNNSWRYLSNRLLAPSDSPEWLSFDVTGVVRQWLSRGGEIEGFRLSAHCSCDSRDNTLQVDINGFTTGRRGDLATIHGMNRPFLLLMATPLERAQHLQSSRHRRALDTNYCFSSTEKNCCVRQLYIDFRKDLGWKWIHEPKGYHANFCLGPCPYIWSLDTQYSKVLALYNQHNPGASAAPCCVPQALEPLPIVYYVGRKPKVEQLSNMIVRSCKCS
T2 sequence (Q14392 20-627 limits assumed, chain 1 of 2): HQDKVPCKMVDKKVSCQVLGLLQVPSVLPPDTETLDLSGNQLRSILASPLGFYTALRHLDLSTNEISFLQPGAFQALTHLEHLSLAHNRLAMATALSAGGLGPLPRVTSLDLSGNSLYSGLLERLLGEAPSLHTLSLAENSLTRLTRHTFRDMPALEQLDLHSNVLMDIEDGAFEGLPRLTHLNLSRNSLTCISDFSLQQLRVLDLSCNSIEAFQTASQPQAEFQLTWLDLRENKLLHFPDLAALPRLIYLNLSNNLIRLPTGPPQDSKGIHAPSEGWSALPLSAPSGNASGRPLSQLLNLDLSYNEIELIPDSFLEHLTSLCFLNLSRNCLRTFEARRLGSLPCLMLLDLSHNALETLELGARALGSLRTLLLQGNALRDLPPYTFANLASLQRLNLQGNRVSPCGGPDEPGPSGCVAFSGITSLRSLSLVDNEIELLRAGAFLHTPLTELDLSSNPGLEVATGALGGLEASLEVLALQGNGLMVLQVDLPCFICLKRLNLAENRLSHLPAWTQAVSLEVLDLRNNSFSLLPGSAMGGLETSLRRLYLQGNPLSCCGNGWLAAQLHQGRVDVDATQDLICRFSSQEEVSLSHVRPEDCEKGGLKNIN
T2 sequence (P01137 30-390 limits assumed, chain 2 of 2): as the sequence (P01137 30-390 limits assumed, chain 2 of 2) above

B1: SR-AB10 (antibody, V domains shown)
VH: QLQLQESGGGVVQPGRSLRLSCAASGFTFNNYPIHWVRQAPGKGLEWVAVMSYDGINKYYADSVKGRFTISRDNSKNTLYLQMNSLRAEDTAVYYCARPRIAARRGGFDYWGQGTLVTVSS
VL: NFMLTQPHSVSESPGKTVTISCTRSSGNIDNNYVQWYQQRPGSSPTTVIYEDNQRPSGVPDRFSGSIDSSSNSASLTISGLKTEDEADYYCQSYDSDNQGVVFGGGTKLTVL
[1]
  normalized response (relative to HuNeg control): 0.51 fraction of uninhibited interaction
[2]
  normalized response (relative to HuNeg control): 1.27 fraction of uninhibited interaction
[3]
  normalized response (relative to HuNeg control): 0.82 fraction of uninhibited interaction
[4]
  normalized response (relative to HuNeg control): 1.53 fraction of uninhibited interaction
GARP-proTGFβ1 complex
  binding result: no binding

B2: SR-AB13 (antibody, V domains shown)
VH: QLQLQESGPGLVKPSETLSLTCTVSGGSISSSSYYWGWIRQPPGKGLEWIGSISYSGSTYYNPSLKSRVTISVDTSKNQFSLKLSSVTAADTAVYYCARDPSYDSIAGMDVWGQGTTVTVSS
VL: DIQLTQSPSSLSASVGDRVTITCRASQSISSYLNWYQQKPGKAPKLLIYAASNLQSGVPSRFSGSGSGTDFTLTISSLQPEDFATYYCQQSFDFPFTFGGGTKVEIK
[5]
  normalized response (relative to HuNeg control): 1.08 fraction of uninhibited interaction
[6]
  normalized response (relative to HuNeg control): 1.38 fraction of uninhibited interaction
[7]
  normalized response (relative to HuNeg control): 1.29 fraction of uninhibited interaction
[8]
  normalized response (relative to HuNeg control): 0.47 fraction of uninhibited interaction

B3: SR-AB2 (antibody, V domains shown)
VH: QVQLVQSGAEVKKPGASVKVSCKASGYTFTSYGISWVRQAPGQGLEWMGWISAYNGNTNYAQKLQGRVTMTTDTSTSTAYMELRSLRSDDTAVYYCARAPLGNFDSWGQGTMVTVSS
VL: B1 VL with N28S, D30A, N31S, D97S, Q99H, G100P
[9]
  normalized response (relative to HuNeg control): 0.47 fraction of uninhibited interaction
[10]
  normalized response (relative to HuNeg control): 1.54 fraction of uninhibited interaction
[11]
  normalized response (relative to HuNeg control): 1.31 fraction of uninhibited interaction
[12]
  normalized response (relative to HuNeg control): 1.11 fraction of uninhibited interaction
